Assay results as given in patent publication US20180155451A1 (published 2018).

What was measured:
[1] = target: T1, FcγRIa extracellular domain with C-terminal His tag (human, UniProt P12314 16-292); experiment: SPR (Biacore), captured antibody, FcγRIa analyte; relative to GpH7-A5/GpH7-B3/GpL16-k0 = 100
T1 construct: extracellular domain; Expressed in FreeStyle293 cells; used as analyte in Biacore; also called FcgRI; 1a; not shown: His tag at the C terminus

[2] = target: T2, FcγRIIIa extracellular domain with C-terminal His tag (human, UniProt P08637 17-208); experiment: SPR (Biacore); ratio of He/Con_3a (FcγRIIIa) to He/Con_2b (FcγRIIb)
T2 construct: extracellular domain; also called FcgRIIIa; 3a; not shown: His tag at the C terminus
Experimental: (§1) The heterodimerized antibodies He Abs in which one of the H chains was introduced with an alteration were assayed for their binding activities to each activating FcγR and inhibitory FcγR according to the method described in Example 4. […] The activating FcγRs in FIGS. 26, 27, 28, and 29 are FcγRIa, FcγRIIa (R), FcγRIIa (H), and FcγRIIIa, respectively.
(§2) Analysis of interaction between objective antibody and the FcγR was carried out using Biacore T100 (GE Healthcare). HBS-EP+ (GE Healthcare) was used as the running buffer, and the measurement temperature was set to 25° C. Chips produced by immobilizing the antigen peptide by the amine coupling method to a Series S Sencor Chip CM5 (GE Healthcare), or alternatively, chips produced by allowing preliminarily biotinylated antigen peptides to interact with and immobilize onto a Series S Sensor Chip SA (certified) (GE Healthcare) were used. Antibodies of interest were captured onto an antigen peptide-immobilized chip, and allowed to interact to each FcγR diluted with running buffer. To regenerate and repeatedly use the chip, the antibodies captured on the chip were washed off by reacting 10 mM glycine-HCl, pH 1.5.

[3] = target: T3, FcγRIIb extracellular domain with C-terminal His tag (human, UniProt P31994 43-217); experiment: SPR (Biacore), antibody captured, FcγR as analyte; He Ab binding / GpH7-A5/GpH7-B3/GpL16-k0 binding x 100
T3 construct: extracellular domain; also called FcgRIIb; 2b; not shown: His tag at the C terminus
T3 sequence (looked up): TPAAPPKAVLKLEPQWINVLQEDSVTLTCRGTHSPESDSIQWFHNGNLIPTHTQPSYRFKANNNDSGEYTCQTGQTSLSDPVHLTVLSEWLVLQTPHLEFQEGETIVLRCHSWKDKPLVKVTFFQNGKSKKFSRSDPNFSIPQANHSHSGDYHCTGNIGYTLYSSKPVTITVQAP
Experimental: as §1, §2

[4] = target: T2, FcγRIIIa extracellular domain with …; experiment: as above
Experimental: as §1, §2

T1 sequence (P12314 16-292): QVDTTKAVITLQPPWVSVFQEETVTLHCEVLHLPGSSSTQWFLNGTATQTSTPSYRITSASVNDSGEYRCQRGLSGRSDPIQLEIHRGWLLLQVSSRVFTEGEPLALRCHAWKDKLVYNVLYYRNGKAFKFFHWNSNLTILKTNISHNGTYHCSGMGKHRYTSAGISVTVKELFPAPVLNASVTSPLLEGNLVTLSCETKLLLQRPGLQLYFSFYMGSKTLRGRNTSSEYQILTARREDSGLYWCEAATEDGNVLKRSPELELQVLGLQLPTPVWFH
T2 sequence (P08637 17-208): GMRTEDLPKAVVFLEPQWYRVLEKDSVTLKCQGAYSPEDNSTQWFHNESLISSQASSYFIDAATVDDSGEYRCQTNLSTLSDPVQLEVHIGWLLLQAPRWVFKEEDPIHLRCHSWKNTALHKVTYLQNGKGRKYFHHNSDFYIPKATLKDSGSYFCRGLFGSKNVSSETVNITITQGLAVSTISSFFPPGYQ

Binder	He/Con_1a [1]	He_3a/2b (IIIa/IIb) [2] [ratio]	He/Con_2b (IIb binding) [3]	He/Con_3a (IIIa binding) [4]
GpH7-A5/GpH7-B3 variant (Y300_13S)/GpL16-k0 (antibody, human IgG1, kappa, Heterodimerized; only the B3 chain altered; also called He Ab Y300_13S) heavy 1: not shown heavy 2: not shown light: DIVMTQSPLSLPVTPGEPASISCQASESLVHSNRNTYLHWYLQKPGQSPQLLIYKVSNRFSGVPDRFSGSGSGTDFTLKISRVEAEDVGVYYCSQNTHVPPTFGQGTKVEIERTVAAPSVFIFPPSDEQLKSGTASVVCLLNNFYPREAKVQWKVDNALQSGNSQESVTEQDSKDSTYSLSSTLTLSKADYEKHKVYACEVTHQGLSSPVTKSFNRGEC	111 % of control	–	–	–
GpH7-A5/GpH7-B3 variant (Y296_12R)/GpL16-k0 (antibody, human IgG1, kappa, Heterodimerized; only the B3 chain altered; also called He Ab Y296_12R) heavy 1: not shown heavy 2: not shown light: DIVMTQSPLSLPVTPGEPASISCQASESLVHSNRNTYLHWYLQKPGQSPQLLIYKVSNRFSGVPDRFSGSGSGTDFTLKISRVEAEDVGVYYCSQNTHVPPTFGQGTKVEIERTVAAPSVFIFPPSDEQLKSGTASVVCLLNNFYPREAKVQWKVDNALQSGNSQESVTEQDSKDSTYSLSSTLTLSKADYEKHKVYACEVTHQGLSSPVTKSFNRGEC	106 % of control	–	–	–
GpH7-A5/GpH7-B3 variant (Y300_11K)/GpL16-k0 (antibody, human IgG1, kappa, Heterodimerized; only the B3 chain altered; also called He Ab Y300_11K) heavy 1: not shown heavy 2: not shown light: DIVMTQSPLSLPVTPGEPASISCQASESLVHSNRNTYLHWYLQKPGQSPQLLIYKVSNRFSGVPDRFSGSGSGTDFTLKISRVEAEDVGVYYCSQNTHVPPTFGQGTKVEIERTVAAPSVFIFPPSDEQLKSGTASVVCLLNNFYPREAKVQWKVDNALQSGNSQESVTEQDSKDSTYSLSSTLTLSKADYEKHKVYACEVTHQGLSSPVTKSFNRGEC	107 % of control	–	–	–
GpH7-A5/GpH7-B3 variant (Y300_19Q)/GpL16-k0 (antibody, human IgG1, kappa, Heterodimerized; only the B3 chain altered; also called He Ab Y300_19Q) heavy 1: not shown heavy 2: not shown light: DIVMTQSPLSLPVTPGEPASISCQASESLVHSNRNTYLHWYLQKPGQSPQLLIYKVSNRFSGVPDRFSGSGSGTDFTLKISRVEAEDVGVYYCSQNTHVPPTFGQGTKVEIERTVAAPSVFIFPPSDEQLKSGTASVVCLLNNFYPREAKVQWKVDNALQSGNSQESVTEQDSKDSTYSLSSTLTLSKADYEKHKVYACEVTHQGLSSPVTKSFNRGEC	112 % of control	–	–	–
GpH7-A5/GpH7-B3 variant (Y296_16H)/GpL16-k0 (antibody, human IgG1, kappa, Heterodimerized; only the B3 chain altered; also called He Ab Y296_16H) heavy 1: not shown heavy 2: not shown light: DIVMTQSPLSLPVTPGEPASISCQASESLVHSNRNTYLHWYLQKPGQSPQLLIYKVSNRFSGVPDRFSGSGSGTDFTLKISRVEAEDVGVYYCSQNTHVPPTFGQGTKVEIERTVAAPSVFIFPPSDEQLKSGTASVVCLLNNFYPREAKVQWKVDNALQSGNSQESVTEQDSKDSTYSLSSTLTLSKADYEKHKVYACEVTHQGLSSPVTKSFNRGEC	106 % of control	–	–	–
GpH7-A5/GpH7-B3 variant A327_11K/GpL16-k0 (antibody, human IgG1, kappa, position is EU numbering; also called He Ab) heavy 1: not shown heavy 2: not shown light: DIVMTQSPLSLPVTPGEPASISCQASESLVHSNRNTYLHWYLQKPGQSPQLLIYKVSNRFSGVPDRFSGSGSGTDFTLKISRVEAEDVGVYYCSQNTHVPPTFGQGTKVEIERTVAAPSVFIFPPSDEQLKSGTASVVCLLNNFYPREAKVQWKVDNALQSGNSQESVTEQDSKDSTYSLSSTLTLSKADYEKHKVYACEVTHQGLSSPVTKSFNRGEC	–	2.53	12.5 relative, control = 100	31.7 relative, control = 100
GpH7-A5/GpH7-B3 variant A330_04F/GpL16-k0 (antibody, human IgG1, kappa, position is EU numbering; also called He Ab) heavy 1: not shown heavy 2: not shown light: DIVMTQSPLSLPVTPGEPASISCQASESLVHSNRNTYLHWYLQKPGQSPQLLIYKVSNRFSGVPDRFSGSGSGTDFTLKISRVEAEDVGVYYCSQNTHVPPTFGQGTKVEIERTVAAPSVFIFPPSDEQLKSGTASVVCLLNNFYPREAKVQWKVDNALQSGNSQESVTEQDSKDSTYSLSSTLTLSKADYEKHKVYACEVTHQGLSSPVTKSFNRGEC	–	1.59	92.8 relative, control = 100	147 relative, control = 100
GpH7-A5/GpH7-B3 variant (Y300_03V)/GpL16-k0 (antibody, human IgG1, kappa, Heterodimerized; only the B3 chain altered; also called He Ab Y300_03V) heavy 1: not shown heavy 2: not shown light: DIVMTQSPLSLPVTPGEPASISCQASESLVHSNRNTYLHWYLQKPGQSPQLLIYKVSNRFSGVPDRFSGSGSGTDFTLKISRVEAEDVGVYYCSQNTHVPPTFGQGTKVEIERTVAAPSVFIFPPSDEQLKSGTASVVCLLNNFYPREAKVQWKVDNALQSGNSQESVTEQDSKDSTYSLSSTLTLSKADYEKHKVYACEVTHQGLSSPVTKSFNRGEC	117 % of control	–	–	–
GpH7-A5/GpH7-B3 variant (Y300_08L)/GpL16-k0 (antibody, human IgG1, kappa, Heterodimerized; only the B3 chain altered; also called He Ab Y300_08L) heavy 1: not shown heavy 2: not shown light: DIVMTQSPLSLPVTPGEPASISCQASESLVHSNRNTYLHWYLQKPGQSPQLLIYKVSNRFSGVPDRFSGSGSGTDFTLKISRVEAEDVGVYYCSQNTHVPPTFGQGTKVEIERTVAAPSVFIFPPSDEQLKSGTASVVCLLNNFYPREAKVQWKVDNALQSGNSQESVTEQDSKDSTYSLSSTLTLSKADYEKHKVYACEVTHQGLSSPVTKSFNRGEC	113 % of control	–	–	–
